Results on 50 sequences are retold here after the supplement of paper PMC9112550, “Optimization of the antimicrobial peptide Bac7 by deep mutational scanning” (BMC Biology, 2022).

The data set deals with Escherichia coli TOP10. The data set is described as follows: shrunken log2 fold change of peptide-encoding DNA abundance (4.5 h post-induction vs induction); higher = less antimicrobial activity (less host growth inhibition). The conditions noted are these: time post-induction: 4.5 h; library: site-saturation at positions 5, 18, 19, 20.
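Note: peptides expressed intracellularly from a pBAD plasmid library in pooled LB shake-flask culture, induced with 0.3% L-arabinose, DNA abundance read by NGS, three biological replicates, DESeq2 with apeglm shrinkage.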

Consider RRIRWRPPRLPRPRPRPAFGPRP, for which the “shrunken log2 fold change” value turned out to be 0.53.

As for RRIRLRPPRLPRPRPRPMGKPRP, the “shrunken log2 fold change” value is -0.353.

RRIRYRPPRLPRPRPRPIKNPRP: the “shrunken log2 fold change” value was -0.275.

In the case of RRIRERPPRLPRPRPRPVADPRP, the “shrunken log2 fold change” value was -0.0439.

Turning to RRIRNRPPRLPRPRPRPHIKPRP, the “shrunken log2 fold change” value was -0.595.

In the case of RRIRVRPPRLPRPRPRPGATPRP, the “shrunken log2 fold change” value came out at 0.277.

For the sequence RRIRHRPPRLPRPRPRPDEVPRP, the “shrunken log2 fold change” value is -0.00134.

With RRIRRRPPRLPRPRPRPAQDPRP, the “shrunken log2 fold change” value is 0.349.

RRIRRRPPRLPRPRPRPIPQPRP: the “shrunken log2 fold change” value is 0.336.

Turning to RRIRCRPPRLPRPRPRPQWEPRP, the “shrunken log2 fold change” value came to 0.0667.

As for RRIRYRPPRLPRPRPRPESWPRP, the “shrunken log2 fold change” value is -0.0403.

Consider RRIRIRPPRLPRPRPRPYFIPRP, for which the “shrunken log2 fold change” value is -1.14.

As for RRIRKRPPRLPRPRPRPNTNPRP, the “shrunken log2 fold change” value was -0.0445.

For the sequence RRIRVRPPRLPRPRPRPEFSPRP, the “shrunken log2 fold change” value was -0.0024.

RRIRYRPPRLPRPRPRPDGVPRP: the “shrunken log2 fold change” value was -0.0741.

As for RRIRGRPPRLPRPRPRPLQWPRP, the “shrunken log2 fold change” value is 0.534.

Consider RRIRDRPPRLPRPRPRPHDWPRP, for which the “shrunken log2 fold change” value turned out to be 0.807.

Regarding RRIRHRPPRLPRPRPRPGMIPRP, the “shrunken log2 fold change” value was -0.187.

Turning to RRIRYRPPRLPRPRPRPEHAPRP, the “shrunken log2 fold change” value is 0.0635.

On to RRIRSRPPRLPRPRPRPGKCPRP, for which the “shrunken log2 fold change” value stood at 0.0216.

As to RRIRLRPPRLPRPRPRPMCRPRP, the “shrunken log2 fold change” value was -0.0985.

Regarding RRIRVRPPRLPRPRPRPLPCPRP, the “shrunken log2 fold change” value is -0.12.

Take RRIRQRPPRLPRPRPRPQDHPRP: the “shrunken log2 fold change” value is -0.408.

Turning to RRIRERPPRLPRPRPRPIPGPRP, the “shrunken log2 fold change” value is -0.124.

Consider RRIRNRPPRLPRPRPRPHQVPRP, for which the “shrunken log2 fold change” value was determined as 0.0294.

With RRIRWRPPRLPRPRPRPSQRPRP, the “shrunken log2 fold change” value was -0.0741.

In the case of RRIRERPPRLPRPRPRPSFKPRP, the “shrunken log2 fold change” value is -0.401.

Regarding RRIRLRPPRLPRPRPRPSSFPRP, the “shrunken log2 fold change” value was -0.0574.

In the case of RRIRERPPRLPRPRPRPPKGPRP, the “shrunken log2 fold change” value was -0.16.

In the case of RRIRGRPPRLPRPRPRPKQSPRP, the “shrunken log2 fold change” value was 0.887.

With RRIRCRPPRLPRPRPRPIRDPRP, the “shrunken log2 fold change” value is -0.231.

In the case of RRIRGRPPRLPRPRPRPRVDPRP, the “shrunken log2 fold change” value turned out to be 1.57.

For RRIRERPPRLPRPRPRPMWIPRP, the “shrunken log2 fold change” value is -0.102.

In the case of RRIRQRPPRLPRPRPRPSPRPRP, the “shrunken log2 fold change” value was 0.31.

Take RRIRKRPPRLPRPRPRPKRGPRP: the “shrunken log2 fold change” value was 0.781.

Consider RRIRFRPPRLPRPRPRPIMVPRP, for which the “shrunken log2 fold change” value is -0.104.

Regarding RRIRSRPPRLPRPRPRPFYFPRP, the “shrunken log2 fold change” value is -0.55.

Regarding RRIRERPPRLPRPRPRPMYFPRP, the “shrunken log2 fold change” value was -0.251.

With RRIRMRPPRLPRPRPRPAHIPRP, the “shrunken log2 fold change” value was -0.161.

Consider RRIRSRPPRLPRPRPRPKDKPRP, for which the “shrunken log2 fold change” value was -0.117.

Regarding RRIRYRPPRLPRPRPRPKVDPRP, the “shrunken log2 fold change” value was -0.079.

With RRIRERPPRLPRPRPRPRKPPRP, the “shrunken log2 fold change” value is -0.13.

Consider RRIRCRPPRLPRPRPRPFSIPRP, for which the “shrunken log2 fold change” value was -0.261.

Regarding RRIRVRPPRLPRPRPRPIPYPRP, the “shrunken log2 fold change” value was -0.0701.

RRIRSRPPRLPRPRPRPWVYPRP: the “shrunken log2 fold change” value was -0.14.

RRIRMRPPRLPRPRPRPFDFPRP: the “shrunken log2 fold change” value was 0.0495.

For RRIRPRPPRLPRPRPRPPFHPRP, the “shrunken log2 fold change” value worked out at 0.011.

For RRIRERPPRLPRPRPRPAQVPRP, the “shrunken log2 fold change” value is -0.149.

As for RRIRHRPPRLPRPRPRPFNDPRP, the “shrunken log2 fold change” value was -0.01.

RRIRVRPPRLPRPRPRPRSHPRP: the “shrunken log2 fold change” value is 0.0021.
